According to article PMC11361444:

Molecular target: 3XFLAG-ZAPL N658A (human) (UniProt Q7Z2W4)
Test: co-IP; 3XFLAG-ZAPL and myc-TRIM25 co-transfected into ZAP KO HEK293T cells; lysed in FLAG buffer (100mM Tris HCl pH8.0, 150mM NaCl, 5mM EDTA, 5% glycerol, 0.1% NP-40, 1mM DTT); FLAG beads with lysates at 4°C for 45 min, three washes, immunoblot; densitometry of myc-TRIM25 normalized to FLAG-ZAP pulldown and to WT

Sequence of UniProt Q7Z2W4 (Q7Z2W4 whole entry N658A): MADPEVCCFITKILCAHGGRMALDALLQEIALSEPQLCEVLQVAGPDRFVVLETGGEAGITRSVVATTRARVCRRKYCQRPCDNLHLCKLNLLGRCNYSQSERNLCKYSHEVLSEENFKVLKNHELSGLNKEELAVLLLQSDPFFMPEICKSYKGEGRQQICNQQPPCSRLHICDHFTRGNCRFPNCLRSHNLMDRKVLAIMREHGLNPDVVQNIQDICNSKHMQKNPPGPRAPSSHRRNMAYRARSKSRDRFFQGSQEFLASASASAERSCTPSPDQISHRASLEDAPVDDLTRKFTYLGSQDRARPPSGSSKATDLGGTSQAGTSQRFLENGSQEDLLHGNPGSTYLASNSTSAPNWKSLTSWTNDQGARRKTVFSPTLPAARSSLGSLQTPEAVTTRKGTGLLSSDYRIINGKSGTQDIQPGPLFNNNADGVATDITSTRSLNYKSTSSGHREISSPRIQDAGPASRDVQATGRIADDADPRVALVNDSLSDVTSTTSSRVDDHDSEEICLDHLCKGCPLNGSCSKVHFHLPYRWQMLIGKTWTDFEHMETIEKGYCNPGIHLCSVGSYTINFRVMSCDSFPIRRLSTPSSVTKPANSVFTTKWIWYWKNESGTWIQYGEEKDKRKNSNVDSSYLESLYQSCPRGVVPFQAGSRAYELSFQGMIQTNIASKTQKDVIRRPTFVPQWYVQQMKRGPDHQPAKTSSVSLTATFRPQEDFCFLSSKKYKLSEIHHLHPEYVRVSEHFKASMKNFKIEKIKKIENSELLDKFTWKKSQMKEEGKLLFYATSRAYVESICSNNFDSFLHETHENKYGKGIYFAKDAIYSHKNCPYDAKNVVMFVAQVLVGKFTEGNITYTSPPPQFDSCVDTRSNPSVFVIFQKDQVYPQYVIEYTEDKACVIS

With “myc-TRIM25 (tripartite motif containing 25) (from UniProt Q14258 1-630) (natural protein)” the myc-TRIM25 immunoprecipitated by FLAG-ZAP, relative to ZAPL WT (x (fold of ZAPL WT)) was 1.09.
